In patent US20250177432A1, “RNA MOLECULES AND COMPOSITIONS FOR CANCER IMMUNOTHERAPY” (WUHAN HOUXIAN BIOPHARMACEUTICAL CO. LTD., priority 2023, published 2025):
“Also recorded” adds a separate entry of the source.

Experiments:
[1] = Translation of codon optimized OX40L and IL-12 mRNA; format: cell-based; conditions: FIG. 17
Text: Further, codon optimization was applied to the sequences of OX40L and IL-12 mRNA.

CT26 tumor cells = experiment: CT26 tumor model, IL-12/OX40L plus additional agent mRNA (Example 4); format: in vivo, mice; conditions: 1.5 μg mRNA in total, days 9 and 12; for effect of adding the agent on the efficacy of the IL-12/OX40L combination: added agent fused to OX40L mRNA through IRES
Experimental: All of these agents were delivered, in various combinations, to the same animal model as used above, as mRNA (1.5 μg in total), on days 9 and 12, post-tumor cell implantation. While IL-12 and OX40L were encoded on different constructs, the added agent (e.g., FADD) was fused to the OX40L mRNA, through an IRES elements.
All the test agents were safe in the animals (FIG. 8).

Molecule	translation level [1]	anti-tumor effect of the added agent alone (CT26 tumor cells)	effect of adding the agent on the efficacy of the IL-12/OX40L combination (CT26 tumor cells)
#10: codon-optimized OX40L mRNA, SEQ ID NO:31 (nucleic acid) AUGGAGCGGGUCCAGCCCCUGGAGGAGAACGUUGGCAACGCAGCGCGGCCCAGGUUCGAGAGGAACAAGCUGCUGCUGGUUGCCAGCGUGAUCCAGGGGCUGGGCCUGCUCCUGUGCUUCACCUACAUCUGCCUGCACUUCAGCGCACUGCAGGUGAGCCACAGGUAUCCCAGGAUACAGAGCAUCAAGGUGCAGUUCACCGAGUACAAGAAGGAGAAGGGCUUCAUCCUCACUUCCCAGAAGGAGGAUGAGAUCAUGAAGGUGCAGAACAACAGCGUGAUCAUCAACUGUGACGGCUUCUACCUGAUCAGCCUGAAGGGGUACUUCAGCCAGGAGGUGAACAUCAGCCUCCACUACCAGAAGGAUGAGGAGCCCCUGUUUCAGCUGAAGAAGGUGAGGUCCGUCAACAGUCUGAUGGUCGCGUCCUUGACCUACAAGGACAAGGUGUACCUGAACGUGACCACCGACAACACCAGCCUGGACGACUUCCAUGUGAACGGCGGUGAGCUGAUCUUGAUUCACCAGAACCCUGGUGAGUUCUGUGUCCUGUGA	relatively lower translation level	–	–
FADD: mRNA encoding FADD (FAS-associated death domain protein) (nucleic acid) AUGGACCCGUUCCUGGUGCUGCUGCACUCGGUGUCGUCCAGCCUGUCGAGCAGCGAGCUGACCGAGCUCAAGUUCCUAUGCCUCGGGCGCGUGGGCAAGCGCAAGCUGGAGCGCGUGCAGAGCGGCCUAGACCUCUUCUCCAUGCUGCUGGAGCAGAACGACCUGGAGCCCGGGCACACCGAGCUCCUGCGCGAGCUGCUCGCCUCCCUGCGGCGCCACGACCUGCUGCGGCGCGUCGACGACUUCGAGGCGGGGGCGGCGGCCGGGGCCGCGCCUGGGGAAGAAGACCUGUGUGCAGCAUUUAACGUCAUAUGUGAUAAUGUGGGGAAAGAUUGGAGAAGGCUGGCUCGUCAGCUCAAAGUCUCAGACACCAAGAUCGACAGCAUCGAGGACAGAUACCCCCGCAACCUGACAGAGCGUGUGCGGGAGUCACUGAGAAUCUGGAAGAACACAGAGAAGGAGAACGCAACAGUGGCCCACCUGGUGGGGGCUCUCAGGUCCUGCCAGAUGAACCUGGUGGCUGACCUGGUACAAGAGGUUCAGCAGGCCCGUGACCUCCAGAACAGGAGUGGGGCCAUGUCCCCGAUGUCAUGGAACUCAGACGCAUCUACCUCCGAAGCGUCCUGA	–	did not have observable anti-tumor effects	further increased the efficacy of the IL-12/OX12L combination; also recorded: greater than by GSDMD and TNFR
#8: codon-optimized OX40L mRNA, SEQ ID NO:29 (nucleic acid) AUGGAGAGGGUGCAGCCCCUGGAGGAGAACGUUGGCAACGCCGCGAGGCCCAGGUUCGAGCGCAACAAGCUCCUCCUGGUUGCCAGCGUGAUCCAGGGGCUGGGGCUGCUGUUGUGCUUUACAUACAUUUGUUUGCACUUCAGCGCCCUGCAGGUGUCACACAGGUACCCUCGUAUCCAGAGUAUUAAGGUGCAGUUCACCGAGUACAAGAAGGAGAAGGGCUUCAUCUUGACCUCCCAGAAGGAGGACGAGAUAAUGAAGGUCCAGAACAACUCCGUAAUCAUCAACUGUGACGGAUUUUACCUUAUCAGCUUGAAGGGGUACUUCUCCCAGGAGGUGAACAUCAGCCUCCACUACCAGAAGGACGAGGAGCCCCUUUUCCAGCUGAAGAAGGUGAGAUCCGUCAACAGUCUGAUGGUUGCGAGUCUGACCUACAAGGAUAAGGUGUACCUGAAUGUGACCACCGACAACACCUCUCUCGAUGACUUUCACGUGAACGGGGGCGAGCUGAUUCUGAUCCAUCAGAAUCCCGGCGAGUUCUGCGUUCUGUGA	relatively lower translation level	–	–
MLKL: mRNA encoding MLKL (mixed lineage kinase domain like pseudokinase) or its four-helix bundle domain (nucleic acid) AUGGAAAAUUUGAAGCAUAUUAUCACCCUUGGCCAGGUCAUCCACAAACGGUGUGAAGAGAUGAAAUACUGCAAGAAACAGUGCCGGCGCCUGGGCCACCGCGUCCUCGGCCUGAUCAAGCCUCUGGAGAUGCUCCAGGACCAAGGAAAGAGGAGCGUGCCCUCUGAGAAGUUAACCACAGCCAUGAACCGCUUCAAGGCUGCCCUGGAGGAGGCUAAUGGGGAGAUAGAAAAGUUCAGCAAUAGAUCCAAUAUCUGCAGGUUUCUAACAGCAAGCCAGGACAAAAUACUCUUCAAGGACGUGAACAGGAAGCUGAGUGAUGUCUGGAAGGAGCUCUCGCUGUUACUUCAGGUUGAGCAACGCAUGCCUGUUUCACCCAUAAGCCAAGGAGCGUCCUGGGCACAGGAAGAUCAGCAGGAUGCAGACGAAGACAGGCGAGCUUUCCAGAUGCUAAGAAGAGAUAAUGAAAAAAUAGAAGCUUCACUGAGACGAUUAGAAAUCAACAUGAAAGAAAUCAAGGAAACUUUGAGGCAGUAUUUACCACCAAAAUGCAUGCAGGAGAUCCCGCAAGAGCAAAUCAAGGAGAUCAAGAAGGAGCAGCUUUCAGGAUCCCCGUGGAUUCUGCUAAGGGAAAAUGAAGUCAGCACACUUUAUAAAGGAGAAUACCACAGAGCUCCAGUGGCCAUAAAAGUAUUCAAAAAACUCCAGGCUGGCAGCAUUGCAAUAGUGAGGCAGACUUUCAAUAAGGAGAUCAAAACCAUGAAGAAAUUCGAAUCUCCCAACAUCCUGCGUAUAUUUGGGAUUUGCAUUGAUGAAACAGUGACUCCGCCUCAAUUCUCCAUUGUCAUGGAGUACUGUGAACUCGGGACCCUGAGGGAGCUGUUGGAUAGGGAAAAAGACCUCACACUUGGCAAGCGCAUGGUCCUAGUCCUGGGGGCAGCCCGAGGCCUAUACCGGCUACACCAUUCAGAAGCACCUGAACUCCACGGAAAAAUCAGAAGCUCAAACUUCCUGGUAACUCAAGGCUACCAAGUGAAGCUUGCAGGAUUUGAGUUGAGGAAAACACAGACUUCCAUGAGUUUGGGAACUACGAGAGAAAAGACAGACAGAGUCAAAUCUACAGCAUAUCUCUCACCUCAGGAACUGGAAGAUGUAUUUUAUCAAUAUGAUGUAAAGUCUGAAAUAUACAGCUUUGGAAUCGUCCUCUGGGAAAUCGCCACUGGAGAUAUCCCGUUUCAAGGCUGUAAUUCUGAGAAGAUCCGCAAGCUGGUGGCUGUGAAGCGGCAGCAGGAGCCACUGGGUGAAGACUGCCCUUCAGAGCUGCGGGAGAUCAUUGAUGAGUGCCGGGCCCAUGAUCCCUCUGUGCGGCCCUCUGUGGAUGAAAUCUUAAAGAAACUCUCCACCUUUUCUAAGUAG	–	did not have observable anti-tumor effects	further increased the efficacy of the IL-12/OX12L combination; also recorded: greater than by GSDMD and TNFR
